Measured values taken from US20180298070A1, “PEPTIDE COMPOUND” (Takeda Pharmaceutical Company Limited, published 2018).
Starred links: 1 amine or outer side, 2 acyl side, 3 side chain; linkers in the order of their positions; H or OH if unused. Non-standard residues stand in square brackets, D forms with d. Groups on a side chain read outwards from the residue. Primed or numbered codes have the meaning given here. No end group written: not given here. *: point of attachment. C20 diacid = O=C(O)CCCCCCCCCCCCCCCCCCC(=O)*; γGlu = O=C(O)[C@H](CCC(=O)[*:2])N[*:1]; Iva = CC[C@](C)(N)C(=O)O; PEG3′ = not defined here; Aib = CC(C)(N)C(=O)O

T1: human GIPR (human), P48546
T1 chain: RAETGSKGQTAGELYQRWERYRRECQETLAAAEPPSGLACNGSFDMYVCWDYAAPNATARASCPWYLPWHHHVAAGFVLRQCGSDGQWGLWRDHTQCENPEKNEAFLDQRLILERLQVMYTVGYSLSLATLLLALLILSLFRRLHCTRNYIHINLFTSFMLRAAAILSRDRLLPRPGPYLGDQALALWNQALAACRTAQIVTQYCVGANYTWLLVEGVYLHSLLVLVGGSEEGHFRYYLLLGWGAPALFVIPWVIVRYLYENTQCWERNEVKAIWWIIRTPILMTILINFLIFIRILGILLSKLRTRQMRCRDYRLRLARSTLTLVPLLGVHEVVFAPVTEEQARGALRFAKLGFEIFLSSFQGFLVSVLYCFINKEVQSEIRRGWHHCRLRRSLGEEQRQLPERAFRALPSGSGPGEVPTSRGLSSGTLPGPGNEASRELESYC

T2: human GLP-1R (human), P43220
T2 chain: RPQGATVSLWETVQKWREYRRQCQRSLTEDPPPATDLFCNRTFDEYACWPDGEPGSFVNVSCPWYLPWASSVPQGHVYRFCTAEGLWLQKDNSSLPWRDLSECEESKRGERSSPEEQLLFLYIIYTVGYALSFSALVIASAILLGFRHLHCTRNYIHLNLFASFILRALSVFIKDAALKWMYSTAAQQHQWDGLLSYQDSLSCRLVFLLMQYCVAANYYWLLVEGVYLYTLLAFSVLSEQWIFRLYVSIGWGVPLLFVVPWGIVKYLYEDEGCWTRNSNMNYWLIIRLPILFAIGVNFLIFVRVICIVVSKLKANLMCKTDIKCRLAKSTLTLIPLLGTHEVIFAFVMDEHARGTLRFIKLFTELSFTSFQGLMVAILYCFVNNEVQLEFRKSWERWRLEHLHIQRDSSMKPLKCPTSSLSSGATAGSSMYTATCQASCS

T3: human GIPR (human, UniProt P48546)
T3 sequence: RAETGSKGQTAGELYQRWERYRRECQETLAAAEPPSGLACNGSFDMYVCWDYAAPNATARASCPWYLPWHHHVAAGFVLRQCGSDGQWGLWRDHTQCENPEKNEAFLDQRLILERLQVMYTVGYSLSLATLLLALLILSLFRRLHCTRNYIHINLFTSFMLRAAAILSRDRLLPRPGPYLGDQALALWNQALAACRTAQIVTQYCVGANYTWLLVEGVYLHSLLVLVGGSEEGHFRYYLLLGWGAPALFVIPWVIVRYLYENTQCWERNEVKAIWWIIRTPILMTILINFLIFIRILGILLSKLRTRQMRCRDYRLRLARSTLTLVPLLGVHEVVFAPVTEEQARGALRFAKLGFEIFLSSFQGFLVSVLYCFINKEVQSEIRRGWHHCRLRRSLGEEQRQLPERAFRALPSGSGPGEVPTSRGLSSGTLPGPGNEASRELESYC

T4: human GIPR (human, UniProt P48546)
T4 sequence: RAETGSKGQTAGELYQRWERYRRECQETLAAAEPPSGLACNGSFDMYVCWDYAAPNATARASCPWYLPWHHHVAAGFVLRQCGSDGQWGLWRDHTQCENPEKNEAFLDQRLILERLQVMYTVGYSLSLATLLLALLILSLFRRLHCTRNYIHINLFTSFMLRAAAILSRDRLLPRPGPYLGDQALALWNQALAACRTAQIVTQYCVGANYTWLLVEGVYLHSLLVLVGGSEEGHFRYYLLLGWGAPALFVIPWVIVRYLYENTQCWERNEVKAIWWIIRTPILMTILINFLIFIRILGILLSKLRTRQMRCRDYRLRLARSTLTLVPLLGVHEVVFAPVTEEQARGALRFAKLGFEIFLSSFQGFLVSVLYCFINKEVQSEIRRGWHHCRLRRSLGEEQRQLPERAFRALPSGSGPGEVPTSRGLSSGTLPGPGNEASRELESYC

T5: human GIPR (human, UniProt P48546)
T5 sequence: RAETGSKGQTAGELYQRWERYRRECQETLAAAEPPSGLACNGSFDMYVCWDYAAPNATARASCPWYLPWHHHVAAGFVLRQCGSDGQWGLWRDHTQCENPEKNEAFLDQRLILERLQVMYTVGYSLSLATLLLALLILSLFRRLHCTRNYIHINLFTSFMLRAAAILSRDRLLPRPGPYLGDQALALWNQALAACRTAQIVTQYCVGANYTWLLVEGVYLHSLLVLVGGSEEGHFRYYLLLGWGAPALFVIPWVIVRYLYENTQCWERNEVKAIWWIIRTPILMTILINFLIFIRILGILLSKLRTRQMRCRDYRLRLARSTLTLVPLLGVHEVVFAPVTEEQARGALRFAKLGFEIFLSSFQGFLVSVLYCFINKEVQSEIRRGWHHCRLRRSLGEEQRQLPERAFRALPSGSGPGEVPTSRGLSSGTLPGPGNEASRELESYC

B1: Compound 307 (peptide)
peptide: YXEGTXISDYSIXLDRXAQXNFVNWXLAQRPSSGAPPPS
modifications: not fully specified; MeTyr at 1; Aib at 2, 13, 20; Iva at 6, 26; Lys(Eda-PEG(3)-PEG(3)-) at 17; C-terminal amide (-NH2)
B2: Compound 484 (peptide)
peptide: YXEGTXISDYSIXXDRXHQXNFVNWXLAQRPSSGAPPPS
modifications: N-terminal methyl (Me-Tyr); Aib at 2, 13, 17, 20; Iva at 6, 26; Lys(Oda-GGGGGG-) at 14; C-terminal NH2
B3: Compound 521 (peptide)
peptide: YXEGTXISDYSIXXDRXHQXNFVNWXLAQRPSSGAPPPS
modifications: N-terminal methyl (Me-Tyr); Aib at 2, 13, 17, 20; Iva at 6, 26; Lys(Eda-GGGGGG-) at 14; C-terminal NH2
B4: Compound 341 (peptide)
peptide: YXEGTXISDYSIXXDRXAQXNFVNWXLAQRPSSGAPPPS
modifications: MeTyr at 1; Aib at 2, 13, 17, 20; Iva at 6, 26; Lys(Eda-GGGGG-) at 14; C-terminal amide (-NH2)
B5: Compound 307 (peptide)
peptide: YXEGTXISDYSIXLDRXAQXNFVNWXLAQRPSSGAPPPS
modifications: not fully specified; N-methyl on Tyr 1; Aib at 2, 13, 20; Iva at 6, 26; Lys(Eda-PEG(3)-PEG(3)-) at 17; C-terminal amide
B6: Compound 349 (peptide)
peptide: YXEGTXISDYSIXLDRXAQXNFVNWXLAQRPSSGAPPPS
modifications: MeTyr at 1; Aib at 2, 13, 20; Iva at 6, 26; Lys(Oda-GGGGG-) at 17; C-terminal amide (-NH2)
B7: Compound 496 (peptide)
peptide: YXEGTXISDYSIXLDRXAQXNFVNWXLAQRPSSGAPPPS
modifications: N-terminal methyl (Me-Tyr); Aib at 2, 13, 20; Iva at 6, 26; Lys(Oda-GGGGGG-) at 17; C-terminal NH2

Columns and labels:
[1] = molecular target: T1, human GIPR (human), P48546; assay: [125I]GIP competition, human GIPR VLP
[2] = molecular target: T1, human GIPR (human), P48546
[3] = molecular target: T2, human GLP-1R (human), P43220
[4] = molecular target: T3, human GIPR; assay: cell-based or functional assay
[5] = molecular target: human GLP-1R (human, UniProt P43220); assay: cell-based or functional assay
[6] = molecular target: T4, human GIPR; assay: [125I]GIP competition, human GIPR VLP
Method: (§1) For the measurement of the binding activity to GIPR, [¹²⁵I]GIP (PerkinElmer, Inc.) in a final concentration of 100 pM and a test compound in a specified concentration were mixed to GIPR_VLP in an assay buffer (50 mM HEPES (pH 7.4, WAKO 342-01375), 5 mM EGTA (WAKO 346-01312), 5 mM MgCl₂ (WAKO 136-03995), 0.1% BSA (Merckmillipore 81-066-04) and 0.005% Tween 20 (BioRad 170-6531)) and reacted at room temperature for 2 hours. VLP to which [¹²⁵I ]GIP was bound was trapped in a GF/C glass fiber filter 96-well plate (PerkinElmer 6005274) using a cell harvester and washed with an assay buffer. The GF/C glass fiber filter 96-well plate in which VLP was trapped was dried at 42° C. overnight. Thereafter, MicroScint-O (PerkinElmer 6013611) was added to the GF/C glass fiber filter 96-well plate sealed using a backseal and the plate was sealed using a topseal. The radioactivity of each well was eventually measured using Topcount (PerkinElmer) and the binding activity of the test compound to GIPR was calculated when the [¹²⁵I]GIP binding activity in the presence of GIP in a final concentration of […] was 100% and the [¹²⁵I]GIP binding activity of the wells to which DMSO was added was 0%.

[7] = molecular target: T5, human GIPR; assay: [125I]GIP displacement, hGIPR VLP
Method: as §1

Binder | IC50 [1] [nM] | Agonist activity (EC50, M) [2] [M] | Agonist activity (EC50, M) [3] [M] | further results
Y[Aib]EGTVVSLYSK([PEG3′-PEG3′-γGlu-C20 diacid])[Aib]LDRQAQ[Aib]EFVK(Ac)WLLRGGPSSGAPPPS (ends and bridges not checked) [Compound 326] | 15 | – | – | –
Y[Aib]EGTFISDYSIALDRK([PEG(2)-C20 diacid])AQQNFVNW[Iva]LAQRPSSGAPPPS (not fully specified (C-terminus); ends and bridges not checked) [Compound 404] | 24 | 1.1e-10 | > 1e-06 | –
Y[Aib]EGTFISDYSIALDRK([PEG(2)-C20 diacid])AQQNFVNW[Iva]LAQR (ends and bridges not checked) [Compound 391] | 34 | 1.1e-10 | > 1e-06 | –
Y[Aib]EGTFISDYSIAK([PEG(2)-C20 diacid])DRIAQQNFVNW[Iva]LAQRPSSGAPPPS (ends and bridges not checked) [Compound 383] | 10 | 4.3e-11 | > 1e-06 | –
Y[Aib]EGTFISDYSK([PEG(2)-C20 diacid])ALDRIAQQNFVNW[Iva]LAQR (ends and bridges not checked) [Compound 387] | 8.2 | 5.9e-11 | > 1e-06 | –
Y[Aib]EGTVVSLYSK([PEG3′-PEG3′-C20 diacid])[Aib]LDRQAQ[Aib]EFVK(Ac)WLLRGGPSSGAPPPS (ends and bridges not checked) [Compound 324] | 7.8 | – | – | –
B1 | – | – | – | Agonist activity (EC50, M) [4]: 4e-11 M; Agonist activity (EC50, M) [5]: > 1e-06 M
B2 | – | – | – | IC50 [6]: 10 nM
B3 | – | – | – | IC50 [6]: 20 nM
B4 | – | – | – | Agonist activity (EC50, M) [5]: > 1e-06 M
B5 | – | – | – | IC50 [7]: 5 nM
B6 | – | – | – | Agonist activity (EC50, M) [5]: > 1e-06 M
B7 | – | – | – | IC50 [6]: 10 nM
